Source: CN104592390A (SHANGHAI ZHANGJIANG BIOTECHNOLOGY CO LTD; SHANGHAI HAISI …, dated 2015)

Molecular target: T1, 乙型肝炎表面抗原(HBsAg) (Hepatitis B virus)
T1 chain: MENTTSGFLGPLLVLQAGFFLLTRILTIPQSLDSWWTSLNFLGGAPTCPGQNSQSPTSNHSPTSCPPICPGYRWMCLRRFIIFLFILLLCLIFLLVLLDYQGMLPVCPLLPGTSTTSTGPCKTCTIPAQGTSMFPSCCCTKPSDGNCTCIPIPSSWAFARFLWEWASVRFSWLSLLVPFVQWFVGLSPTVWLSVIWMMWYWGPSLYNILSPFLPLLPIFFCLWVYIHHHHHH
Assay: ELISA affinity determination on HBsAg

B1: C4D2-BsAb (bispecific antibody, human IgG1, kappa)
VH: not shown
VL: DIVMTQSPLSLSVTPGEPASISCRSSQSLLHRSGNNYLDWYLQKPGHSPQLLIYVGSNRASGVPDRFSGSGSGTEYTLKISRVEAEDVGVYYCMQALQTPRTFGQGTKLEIKRTVAAPSVFIFPPELVMTQSPSSLSASVGDRVTITCRASQGIYNSIAWYQQKPGKAPKLLLYSTSTLLSGVPSRFSGSGSGTDYTLTITNLQPEDFATYYCQQYFVTPETFGQGTKVEIKRTVAAPSVFIFPPSDEQLKSGTASVVCLLNNFYPREAKVQWKVDNALQSGNSQESVTEQDSKDSTYSLSSTLTLSKADYEKHKVYACEVTHQGLSSPVTKSFNRGEC
notes: Dual-variable-domain format; also called 双特异性抗体C4D2-BsAb
Kd: 3.88 nM
